Assay results as given in patent US20250076311A1 (Chugai, published 2025).
Changes are numbered by the printed parent chain. Blank lines part the entries; values can stand above or below the binder they belong to.

Assays:
[1] = biological target: T1, soluble mouse FcγRII, His-tagged (mouse, UniProt P08101 30-210, limits assumed); assay: SPR, mouse FcγRII captured via His-tag, antigen-antibody complex injected, pH 7.4, 25 C
T1 construct: Captured on the chip through an anti-His antibody
T1 sequence (looked up): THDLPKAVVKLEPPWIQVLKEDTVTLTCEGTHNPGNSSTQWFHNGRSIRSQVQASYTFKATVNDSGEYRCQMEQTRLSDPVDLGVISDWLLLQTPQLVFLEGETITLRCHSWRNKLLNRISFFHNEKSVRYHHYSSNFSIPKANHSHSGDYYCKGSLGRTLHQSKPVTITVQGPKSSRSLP
Experimental: Regarding the produced Fc region variant-containing antibodies, binding assays between soluble mouse FcγRII and antigen-antibody complexes were performed using BIACORE® T200 (GE Healthcare). Soluble mouse FcγRII was produced in the form of a His-tagged molecule by a method known to those skilled in the art. An appropriate amount of an anti-His antibody was fixed onto Sensor chip CM5 (GE Healthcare) by the amine coupling method using a His capture kit (GE Healthcare) to capture mouse FcγRII. Next, an antibody-antigen complex and a running buffer (as a reference solution) were injected, and interaction was allowed to take place with the mouse FcγRII captured onto the sensor chip. 20 mM N-(2-Acetamido)-2-aminoethanesulfonic acid, 150 mM NaCl, 1.2 mM CaCl₂), and 0.05% (w/v) TWEEN® 20 at pH7.4 was used as the running buffer, and the respective buffer was also used to dilute the soluble mouse FcγRII. To regenerate the sensor chip, 10 mM glycine-HCl at pH1.5 was used. All measurements were carried out at 25° C. […] To calculate the parameters, the BIACORE® T100 Evaluation Software (GE Healthcare) was used.

[2] = biological target: T2, human FcγRIIb constitutively expressed on MDCK cells (human, UniProt P31994 43-310); assay: cell-based or functional assay
T2 sequence (looked up): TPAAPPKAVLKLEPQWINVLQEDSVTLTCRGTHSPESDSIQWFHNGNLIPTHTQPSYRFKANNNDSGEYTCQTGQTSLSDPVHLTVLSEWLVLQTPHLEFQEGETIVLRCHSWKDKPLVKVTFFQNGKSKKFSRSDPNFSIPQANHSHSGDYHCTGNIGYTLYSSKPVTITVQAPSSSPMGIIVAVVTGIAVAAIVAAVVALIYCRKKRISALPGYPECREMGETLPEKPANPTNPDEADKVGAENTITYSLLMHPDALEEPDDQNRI

[3] = biological target: T3, cynomolgus monkey FcγRIIIaS extracellular domain with C-terminal His-tag (cynomolgus monkey, UniProt A3RFZ7 21-206 (rhesus entry)); assay: SPR Biacore, antibody captured, FcgR analyte
T3 construct: also called cyno FcgRIIIaS; cynoFcγRIIIaS; not shown: His-tag added to C-terminus
T3 sequence (A3RFZ7 21-206): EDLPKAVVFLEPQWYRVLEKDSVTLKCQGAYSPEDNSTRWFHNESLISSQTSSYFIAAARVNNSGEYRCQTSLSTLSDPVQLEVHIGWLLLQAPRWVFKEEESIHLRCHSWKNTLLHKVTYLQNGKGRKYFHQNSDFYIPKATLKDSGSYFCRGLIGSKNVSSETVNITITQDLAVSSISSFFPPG
Experimental: The kinetic analysis of interactions between these antibodies and FcγR was carried out using BIACORE® T200 or BIACORE® 4000 (GE Healthcare). HBS-EP+ (GE Healthcare) was used as the running buffer, and the measurement temperature was set to 25° C. […] After the measurement, the antibody captured on the chip was washed off by allowing reaction with 10 mM glycine-HCl, pH1.5 and 25 mM NaOH so that the chip was regenerated and used repeatedly. The sensorgrams obtained as measurement results were analyzed by the 1:1 Langmuir binding model using the BIACORE® Evaluation Software to calculate the binding rate constant ka (L/mol/s) and dissociation rate constant kd (1/s), and the dissociation constant KD (mol/L) was calculated from these values. […] Regarding such interactions, KD values were calculated using the following 1:1 binding model described in BIACORE® T100 Software Handbook BR1006-48 Edition AE.

B2: M103205H795-P1549m/M103202L889-SK1 (antibody, human IgG1, kappa, name in EU numbering)
heavy: QVTLKESGPVLVKPTETLTLTCTVSGIDLSHDDISWVRQAPGKGLEWVGIISYAGSTYYASWAKGRLTISKDTSKNQVVLTMTNMDPVDTATYYCARGVPAYSHGGDLWGQGTLVTVSSASTKGPSVFPLAPSSKSTSGGTAALGCLVKDYFPEPVTVSWNSGALTSGVHTFPAVLQSSGLYSLSSVVTVPSSSLGTQTYICNVNHKPSNTKVDKKVEPKSCDKTHTCPPCPAPELLGGPSVFLFPPKPKDTLMISRTPEVTCVVVDVSHEDPEVKFNWYVDGVEVHNAKTKPREEQYNSTYRVVSVLTVLHRDWLNGKEYKCKVSNKALPAPIEKTISKAKGQPREPQVYTLPPSREEMTKNQVSLTCLVKGFYPSDIAVEWESNRQPENNYKTTPPVLDSDRSFFLYSKLTVDKSRWQQGNVFSCSVMHEALHNHYTQKSLSLSP
light: DIVMTQSPATLSLSPGERATLSCTSSQSVYHANWLSWFQQKPGQPPKLLIYWASTLAYGVPSRFSGSGSGTDFTLTISSLQPEDAATYYCAGGYGGGRYAFGQGTKVEIKRTVAAPSVFIFPPSDEQLKSGTASVVCLLNNFYPREAKVQWKVDNALQSGNSQESVTEQDSKDSTYSLSSTLTLSKADYEKHKVYACEVTHQGLSSPVTKSFNRGEC
notes: copies: 2 + 2
biacore IC binding (relative, SG1 = 1.00) [1]: 1.22 relative to SG1 | celluar uptake (labelled human latent myostatin taken up as antigen-antibody complex) [2]: 2.03 relative to SG1 = 1.00

B3: M103205H795-P1547m/M103202L889-SK1 (antibody, human IgG1, kappa, name in EU numbering)
heavy: B2 heavy with R387G, R404K, D415K
light: B2 light
notes: copies: 2 + 2
biacore IC binding (relative, SG1 = 1.00) [1]: 1.33 relative to SG1 | celluar uptake (labelled human latent myostatin taken up as antigen-antibody complex) [2]: 4.85 relative to SG1 = 1.00

B4: M103205H795-P1551m/M103202L889-SK1 (antibody, human IgG1, kappa, name in EU numbering)
heavy: B2 heavy with R387G, E390R
light: B2 light
notes: copies: 2 + 2
biacore IC binding (relative, SG1 = 1.00) [1]: 1.33 relative to SG1 | celluar uptake (labelled human latent myostatin taken up as antigen-antibody complex) [2]: 2.91 relative to SG1 = 1.00

B6: M103205H795-P1540m/M103202L889-SK1 (antibody, human IgG1, kappa, name in EU numbering)
heavy: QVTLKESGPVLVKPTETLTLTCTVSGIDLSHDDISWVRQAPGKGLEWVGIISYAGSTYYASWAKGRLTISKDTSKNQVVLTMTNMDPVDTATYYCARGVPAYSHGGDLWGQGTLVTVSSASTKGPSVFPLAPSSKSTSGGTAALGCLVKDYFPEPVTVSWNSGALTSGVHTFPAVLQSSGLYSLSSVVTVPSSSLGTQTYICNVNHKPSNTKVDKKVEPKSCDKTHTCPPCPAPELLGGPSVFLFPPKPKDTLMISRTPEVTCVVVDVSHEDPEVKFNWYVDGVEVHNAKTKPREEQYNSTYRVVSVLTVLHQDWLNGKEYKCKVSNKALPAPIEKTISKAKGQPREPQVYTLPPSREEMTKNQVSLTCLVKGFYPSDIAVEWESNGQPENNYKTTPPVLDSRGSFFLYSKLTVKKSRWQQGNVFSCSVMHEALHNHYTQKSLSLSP
light: B2 light
notes: copies: 2 + 2
biacore IC binding (relative, SG1 = 1.00) [1]: 1.73 relative to SG1 | celluar uptake (labelled human latent myostatin taken up as antigen-antibody complex) [2]: 7.64 relative to SG1 = 1.00

B7: M103205H795-P1544m/M103202L889-SK1 (antibody, human IgG1, kappa, name in EU numbering)
heavy: B2 heavy with R387G, D403R, R404G, D415K
light: B2 light
notes: copies: 2 + 2
biacore IC binding (relative, SG1 = 1.00) [1]: 2.04 relative to SG1 | celluar uptake (labelled human latent myostatin taken up as antigen-antibody complex) [2]: 7.66 relative to SG1 = 1.00

B8: MS1032LO06-P1383m (antibody, human IgG1, kappa, name in EU numbering)
heavy: B2 heavy with R387G, S402R, R404G, D415K
light: B2 light
notes: also called M103205H795-P1383m; copies: 2 + 2
biacore IC binding (relative, SG1 = 1.00) [1]: 1.41 relative to SG1 | celluar uptake (labelled human latent myostatin taken up as antigen-antibody complex) [2]: 5.68 relative to SG1 = 1.00

B14: M103205H795-SG141/M103202L889-SK1 (antibody, human IgG1, kappa, name in EU numbering)
heavy: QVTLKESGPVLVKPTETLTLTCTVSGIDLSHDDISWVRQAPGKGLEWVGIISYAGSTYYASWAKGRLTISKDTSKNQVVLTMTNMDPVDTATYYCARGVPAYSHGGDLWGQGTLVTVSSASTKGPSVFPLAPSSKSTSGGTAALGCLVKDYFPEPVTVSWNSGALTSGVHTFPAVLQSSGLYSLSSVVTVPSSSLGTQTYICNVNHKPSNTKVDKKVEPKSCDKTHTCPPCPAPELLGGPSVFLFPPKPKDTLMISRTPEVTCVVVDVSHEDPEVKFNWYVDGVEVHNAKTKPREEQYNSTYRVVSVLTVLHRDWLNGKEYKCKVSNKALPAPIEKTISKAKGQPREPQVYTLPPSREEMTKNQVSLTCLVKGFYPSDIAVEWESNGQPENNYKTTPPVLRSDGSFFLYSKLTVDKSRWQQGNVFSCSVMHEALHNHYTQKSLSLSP
light: B2 light
notes: copies: 2 + 2
biacore IC binding (relative, SG1 = 1.00) [1]: 1.64 relative to SG1 | celluar uptake (labelled human latent myostatin taken up as antigen-antibody complex) [2]: 4.42 relative to SG1 = 1.00

B15: M103205H795-MY174/M103202L889-SK1 (antibody, human IgG1, kappa, name in EU numbering)
heavy: B2 heavy with G238N, H270E, R313Q, R387G, P398I, R404G
light: B2 light
notes: EU numbering
KD fold (SG1 = 1) [3]: 0.14 fold | Kd [3]: 2500 nM

B18: M103205H795-P1545m/M103202L889-SK1 (antibody, human IgG1, kappa, name in EU numbering)
heavy: B2 heavy with R387G, D403K, R404G, D415K
light: B2 light
notes: copies: 2 + 2
biacore IC binding (relative, SG1 = 1.00) [1]: 1.8 relative to SG1 | celluar uptake (labelled human latent myostatin taken up as antigen-antibody complex) [2]: 7.73 relative to SG1 = 1.00

B19: M103205H795-P1555m/M103202L889-SK1 (antibody, human IgG1, kappa, name in EU numbering)
heavy: B2 heavy with R313Q, R387G, E390R, D415K
light: B2 light
notes: copies: 2 + 2
biacore IC binding (relative, SG1 = 1.00) [1]: 2.01 relative to SG1 | celluar uptake (labelled human latent myostatin taken up as antigen-antibody complex) [2]: 3.71 relative to SG1 = 1.00

Results, then the binder that gave them:

biacore IC binding (relative, SG1 = 1.00) [1]: 0.9 relative to SG1 | celluar uptake (labelled human latent myostatin taken up as antigen-antibody complex) [2]: 3.2 relative to SG1 = 1.00
B1: M103205H795-P1539m/M103202L889-SK1 (antibody, human IgG1, kappa, name in EU numbering)
heavy: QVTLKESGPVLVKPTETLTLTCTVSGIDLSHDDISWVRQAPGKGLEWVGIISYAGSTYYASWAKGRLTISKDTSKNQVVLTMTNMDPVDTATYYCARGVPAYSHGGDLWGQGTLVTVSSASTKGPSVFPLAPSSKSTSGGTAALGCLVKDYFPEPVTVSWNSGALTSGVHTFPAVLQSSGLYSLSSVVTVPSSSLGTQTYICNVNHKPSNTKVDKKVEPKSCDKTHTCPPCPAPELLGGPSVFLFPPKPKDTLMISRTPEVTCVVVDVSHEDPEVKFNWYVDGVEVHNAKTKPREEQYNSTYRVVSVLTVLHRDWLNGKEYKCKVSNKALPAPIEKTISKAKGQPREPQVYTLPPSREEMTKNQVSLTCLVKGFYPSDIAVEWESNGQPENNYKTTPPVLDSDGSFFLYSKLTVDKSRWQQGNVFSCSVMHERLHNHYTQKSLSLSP
light: B2 light
notes: copies: 2 + 2

biacore IC binding (relative, SG1 = 1.00) [1]: 2.19 relative to SG1 | celluar uptake (labelled human latent myostatin taken up as antigen-antibody complex) [2]: 4.44 relative to SG1 = 1.00
B5: M103205H795-P1552m/M103202L889-SK1 (antibody, human IgG1, kappa, name in EU numbering)
heavy: B2 heavy with R313Q, D403R, R404G, D415K
light: B2 light
notes: copies: 2 + 2

KD fold (SG1 = 1) [3]: 0.09 fold
B9: M103205H795-MY199/M103202L889-SK1 (antibody, human IgG1, kappa, name in EU numbering)
heavy: B2 heavy with G238N, H270E, R313Q, A332K, R387G, R404G
light: B2 light
notes: substitutions in EU numbering, introduced into M103205H795-SG1

biacore IC binding (relative, SG1 = 1.00) [1]: 1.41 relative to SG1 | celluar uptake (labelled human latent myostatin taken up as antigen-antibody complex) [2]: 5.1 relative to SG1 = 1.00
B10: M103205H795-P1546m/M103202L889-SK1 (antibody, human IgG1, kappa, name in EU numbering)
heavy: B2 heavy with R387G, D415K
light: B2 light
notes: copies: 2 + 2

biacore IC binding (relative, SG1 = 1.00) [1]: 1.23 relative to SG1 | celluar uptake (labelled human latent myostatin taken up as antigen-antibody complex) [2]: 3.86 relative to SG1 = 1.00
B11: MS1032LO06-P1378m (antibody, human IgG1, kappa, name in EU numbering)
heavy: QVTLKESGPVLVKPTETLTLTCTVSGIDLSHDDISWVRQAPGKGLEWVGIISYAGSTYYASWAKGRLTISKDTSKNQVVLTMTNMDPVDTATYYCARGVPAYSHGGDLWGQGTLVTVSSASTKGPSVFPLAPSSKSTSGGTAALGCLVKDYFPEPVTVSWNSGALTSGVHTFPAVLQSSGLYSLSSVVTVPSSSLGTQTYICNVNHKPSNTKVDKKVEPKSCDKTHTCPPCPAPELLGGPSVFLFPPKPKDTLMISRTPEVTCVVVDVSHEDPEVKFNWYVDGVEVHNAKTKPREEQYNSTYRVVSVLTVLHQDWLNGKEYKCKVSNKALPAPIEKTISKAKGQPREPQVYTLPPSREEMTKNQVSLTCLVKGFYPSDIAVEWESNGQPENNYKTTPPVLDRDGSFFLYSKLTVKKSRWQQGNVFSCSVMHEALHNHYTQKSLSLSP
light: B2 light
notes: also called M103205H795-P1378m; copies: 2 + 2

biacore IC binding (relative, SG1 = 1.00) [1]: 1.21 relative to SG1 | celluar uptake (labelled human latent myostatin taken up as antigen-antibody complex) [2]: 3.32 relative to SG1 = 1.00
B12: M103205H795-P1542m/M103202L889-SK1 (antibody, human IgG1, kappa, name in EU numbering)
heavy: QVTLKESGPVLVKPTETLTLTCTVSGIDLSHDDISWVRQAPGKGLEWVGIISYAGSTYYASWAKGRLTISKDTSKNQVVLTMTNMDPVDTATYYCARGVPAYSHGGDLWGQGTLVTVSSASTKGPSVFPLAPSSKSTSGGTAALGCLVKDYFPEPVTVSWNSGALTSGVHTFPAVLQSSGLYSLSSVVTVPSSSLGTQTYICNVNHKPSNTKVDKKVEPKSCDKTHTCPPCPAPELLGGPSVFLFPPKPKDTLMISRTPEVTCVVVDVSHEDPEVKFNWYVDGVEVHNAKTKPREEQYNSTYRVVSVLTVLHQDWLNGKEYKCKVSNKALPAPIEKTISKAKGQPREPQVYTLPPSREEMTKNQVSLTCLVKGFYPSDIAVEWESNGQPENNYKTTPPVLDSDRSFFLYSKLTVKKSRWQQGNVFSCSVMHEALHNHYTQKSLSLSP
light: B2 light
notes: copies: 2 + 2

biacore IC binding (relative, SG1 = 1.00) [1]: 1.37 relative to SG1 | celluar uptake (labelled human latent myostatin taken up as antigen-antibody complex) [2]: 2.3 relative to SG1 = 1.00
B13: M103205H795-P1548m/M103202L889-SK1 (antibody, human IgG1, kappa, name in EU numbering)
heavy: B2 heavy with D403R, R404G
light: B2 light
notes: copies: 2 + 2

biacore IC binding (relative, SG1 = 1.00) [1]: 1.98 relative to SG1 | celluar uptake (labelled human latent myostatin taken up as antigen-antibody complex) [2]: 3.61 relative to SG1 = 1.00
B16: MS1032LO06-P1499m (antibody, human IgG1, kappa, name in EU numbering)
heavy: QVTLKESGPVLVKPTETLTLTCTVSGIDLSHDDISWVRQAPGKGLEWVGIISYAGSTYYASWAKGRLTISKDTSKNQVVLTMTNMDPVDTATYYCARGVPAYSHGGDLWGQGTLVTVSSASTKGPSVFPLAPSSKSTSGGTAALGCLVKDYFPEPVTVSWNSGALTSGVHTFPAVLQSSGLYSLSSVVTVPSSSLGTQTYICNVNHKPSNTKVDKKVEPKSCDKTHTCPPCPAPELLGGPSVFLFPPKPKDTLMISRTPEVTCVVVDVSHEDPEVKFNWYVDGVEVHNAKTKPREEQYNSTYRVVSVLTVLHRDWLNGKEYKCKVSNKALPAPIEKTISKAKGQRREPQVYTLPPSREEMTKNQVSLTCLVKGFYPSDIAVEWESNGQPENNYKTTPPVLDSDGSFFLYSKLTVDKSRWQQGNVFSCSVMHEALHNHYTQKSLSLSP
light: B2 light
notes: also called M103205H795-P1499m

biacore IC binding (relative, SG1 = 1.00) [1]: 1.57 relative to SG1 | celluar uptake (labelled human latent myostatin taken up as antigen-antibody complex) [2]: 7.17 relative to SG1 = 1.00
B17: M103205H795-P1541m/M103202L889-SK1 (antibody, human IgG1, kappa, name in EU numbering)
heavy: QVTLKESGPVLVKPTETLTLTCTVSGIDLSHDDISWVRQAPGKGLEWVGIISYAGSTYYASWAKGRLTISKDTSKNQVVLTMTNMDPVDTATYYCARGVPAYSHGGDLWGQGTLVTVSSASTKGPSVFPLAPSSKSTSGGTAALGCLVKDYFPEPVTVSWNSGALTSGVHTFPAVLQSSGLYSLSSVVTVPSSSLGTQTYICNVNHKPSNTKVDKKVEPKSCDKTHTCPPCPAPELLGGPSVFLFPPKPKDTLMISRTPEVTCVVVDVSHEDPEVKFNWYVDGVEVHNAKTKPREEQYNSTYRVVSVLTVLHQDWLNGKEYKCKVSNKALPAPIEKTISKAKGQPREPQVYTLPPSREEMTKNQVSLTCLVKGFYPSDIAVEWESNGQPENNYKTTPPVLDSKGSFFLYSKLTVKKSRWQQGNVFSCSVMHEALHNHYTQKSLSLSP
light: B2 light
notes: copies: 2 + 2

biacore IC binding (relative, SG1 = 1.00) [1]: 1.19 relative to SG1 | celluar uptake (labelled human latent myostatin taken up as antigen-antibody complex) [2]: 3.7 relative to SG1 = 1.00
B20: M103205H795-P1543m/M103202L889-SK1 (antibody, human IgG1, kappa, name in EU numbering)
heavy: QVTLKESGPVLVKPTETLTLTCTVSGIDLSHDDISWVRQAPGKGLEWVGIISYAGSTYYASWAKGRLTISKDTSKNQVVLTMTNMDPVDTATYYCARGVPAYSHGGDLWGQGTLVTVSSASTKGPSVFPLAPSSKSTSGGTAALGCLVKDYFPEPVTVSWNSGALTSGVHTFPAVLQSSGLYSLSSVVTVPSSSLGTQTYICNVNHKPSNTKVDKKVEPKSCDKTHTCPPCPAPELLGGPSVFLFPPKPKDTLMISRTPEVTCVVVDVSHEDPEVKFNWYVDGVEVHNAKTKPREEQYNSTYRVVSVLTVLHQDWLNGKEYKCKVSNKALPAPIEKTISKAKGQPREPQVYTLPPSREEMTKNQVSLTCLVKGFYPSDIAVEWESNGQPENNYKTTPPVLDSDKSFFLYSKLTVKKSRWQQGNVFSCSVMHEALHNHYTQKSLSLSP
light: B2 light
notes: copies: 2 + 2

biacore IC binding (relative, SG1 = 1.00) [1]: 1.47 relative to SG1 | celluar uptake (labelled human latent myostatin taken up as antigen-antibody complex) [2]: 2.86 relative to SG1 = 1.00
B21: M103205H795-P1553m/M103202L889-SK1 (antibody, human IgG1, kappa, name in EU numbering)
heavy: B2 heavy with R313Q, D415K
light: B2 light
notes: copies: 2 + 2

biacore IC binding (relative, SG1 = 1.00) [1]: 1.63 relative to SG1 | celluar uptake (labelled human latent myostatin taken up as antigen-antibody complex) [2]: 6.43 relative to SG1 = 1.00
B22: M103205H795-P1550m/M103202L889-SK1 (antibody, human IgG1, kappa, name in EU numbering)
heavy: B2 heavy with R387G, E390R, D403R, R404G
light: B2 light
notes: copies: 2 + 2
